The supplement of paper PMC9170038

Assays:
MS2 coat protein [1] = assay: apparent KD of MS2 coat protein, switch ON state; designed switch direction (-1 OFF switch, 1 ON switch): -1; higher = weaker reporter binding; conditions: FMN input: 0 or 200 uM; Eterna round: R93 (includes R88 designs)
Summary of the method: (§1)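 Normalised binding curves from single clusters were fitted, and the median fit for each design is given as apparent KD. The clusters held designed RNA switches transcribed on-chip from Illumina sequencing clusters. These were titrated with SNAP-549-labelled MS2 coat protein (twofold steps from 0.7 or 1.5 nM to 3 µM, 0.8–1.5 h to 10–20 min per step) in 100 mM Tris-HCl pH 7.5, 80 mM KCl, 4 mM MgCl2, without or with constant ligand.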

MS2 coat protein [2] = assay: apparent KD of MS2 coat protein, switch OFF state (with FMN for OFF switches, without FMN for ON switches); designed switch direction (-1 OFF switch, 1 ON switch): -1; higher = weaker reporter binding; conditions: FMN input: 0 or 200 uM; Eterna round: R93 (includes R88 designs)
Summary of the method: as §1

MS2 coat protein [3] = assay: apparent KD of MS2 coat protein; designed switch direction (-1 OFF switch, 1 ON switch): 1; higher = weaker reporter binding
Summary of the method: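 On Illumina chips, designed RNA switches with common flanks were made by stalled E. coli RNA polymerase. Titrations with SNAP-549-labelled MS2 coat protein, doubling from 0.7 or 1.5 nM to 3 µM, were done with no input, with 200 uM small-molecule ligand, or with an oligonucleotide input. Apparent KD is the median per design over clusters, from curve fits of normalised cluster fluorescence.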

[4] = input ligand: microRNA oligo, concentration not stated
[5] = Eterna round: R95, input ligand: FMN 200 uM
[6] = Eterna round: R95, input ligand: microRNA oligo, concentration not stated
[7] = Eterna round: R95, input ligand: none

Sequence | apparent KD of MS2 coat protein (MS2 coat protein [1]) [nM] | apparent KD of MS2 coat protein (MS2 coat protein [2]) [nM] | apparent KD of MS2 coat protein (MS2 coat protein [3]; input ligand: FMN 200 uM) [nM] | apparent KD of MS2 coat protein (MS2 coat protein [3]; [4]) [nM] | apparent KD of MS2 coat protein (MS2 coat protein [3]; input ligand: none) [nM] | further results
AAGAAGUCAGGAUAUGCCAGAGAACAAGAAAGUGAAGAAUAGCAGAAGGGACAUGAGGAUCACCCAUGUAAAGA [Opal 11] | 46.9 | 34.5 |  |  |  | 
AAGAAGCUAGGAUAUACAUGAGGAUCACCCAUGUAAAAGAAAGAAGGGAAAGAGAAAAGUAGAAGGAGCAAGAA [Tefnakht] | 26.6 | 34.4 |  |  |  | 
AAGAAGUCAGGAUAUGCCAGAGAUCACGAAAGUGACUAAGGGCAGAAGGGACAUGAGGAUCACCCAUGUAAAGA [Opal 5] | 63.4 | 62.1 |  |  |  | 
AGCAAGUGAGGAUAUGCGAAGUCAGGACACACACUGACGAAGCAGAAGGCACAUGAGGAUCACCCAUGUAAGCA [JR_Exclusion-4 65% 1] | 33.1 | 27.1 |  |  |  | 
AAGAAGAGAGGAUAUACAUGAGGAUCACCCAUGUAAAAGAAAGAAGGGAAAGAGAAAAGUAGAAGGCUCAAGAA [Usermaatre-setpenamun Rudamun] | 25.6 | 31 |  |  |  | 
AAAAUGAAAGGAUAUACAUGAGGAUCACCCAUGUUCCAGAACAGGAGUACAAGCGAGUGUAGAAGGUUCAGCAA [Ercesois] | 22.3 | 42.7 |  |  |  | 
UAAAAACAUGAGGAUCACCCAUGUGAGGAUAUGUGAAAAAAAAAAAAAAAAAAAACAAGCAGAAGGCACAAAAA [JR_Exc001_Sub020] | 67.6 | 584 |  |  |  | 
AAAAAUUGAGGAUAUACGAACAUGUCGAAAGACGUGAAGGGACAUGAGGAUCACCCAUGUAGAAGGCGAAAAAA [Mat - Exclusion 2 - JL mod - D68] | 33.7 | 20.7 |  |  |  | 
CUUAUGUCAGGAUAUCAGUAGUAAAAAAAUAAAAUUACUACUGAGAAGGGACAUGAGGAUCACCCAUGUCAAAA [EX4 365: Super Stable 65] | 164 | 97.2 |  |  |  | 
AGCUAGUCAGGAUAUACAAACAUGUCGAAAGACGUGAAGGGACAUGAGGAUCACCCAUGUAGAAGGGACUAGCA [Mod of Janderson's WEB Mod v.2] | 50 | 273 |  |  |  | 
AAAAAGUGAGGAUAUACGCUGUGGAGUAGACACAACCAGUCGUAGAAGGCACAUGAGGAUCACCCAUGUCCAAA [EX4 Malc#19] | 22 | 49.6 |  |  |  | 
CAGGUACGAGGAUAUACAUAGAUACAGACACAUGUUCAAGUACAUGAGGAUCACCCAUGUAGAAGGCGUAUAUG [Mat - Same state - Mayanna Mod - D108] | 47.6 | 88.5 |  |  |  | 
AUACAUAUCAGAGGAUAUCACGUCGUUUAGACGUGAGAAGGCUGAUCACACAUGAAUAUUAAUACAUGAGGAUCACCCAUGUAU [SSNG1/14-A3] (Eterna round: R96, puzzle: Same State NG 1) |  |  | 13.7 | 13.4 | 20.9 | 
UGGAUCUAGGCUUGCCUGGGUCCAUGUUGACAUGAGGAUCACCCAUGUGUAUUUUAUAAGCUUUUUGUUUGUCAACU [JL A Humble Attempt mod 8] (puzzle: Sensor for hsa-mir-208a) |  |  |  |  |  | apparent KD of MS2 coat protein (MS2 coat protein [3]; [5]): 25.7 nM; apparent KD of MS2 coat protein (MS2 coat protein [3]; [6]): 12.8 nM; apparent KD of MS2 coat protein (MS2 coat protein [3]; [7]): 28.4 nM
AUUAAACAUGAGGAUCACCCAUGUCAACAAAGUCGAGGAUAUGGGCAAAUAAAAUAUGAACCAGAAGGCGAAUAAU [salish99_ss1_r3_064] (Eterna round: R96, puzzle: Same State 1) |  |  | 32.9 | 208 | 263 | 
GAGUGGAGGAGAGGAUAUACAAUGAUAAUCACAGUAGAAGGUUCUAACAUGAGGAUCACCCAUGUAGGACUAUUCCUGAGAGUU [Parity 50 - Jieux - Same State NG 1] (Eterna round: R96, puzzle: Same State NG 1) |  |  | 10.8 | 9.56 | 12.8 | 
GGAGGACAUGAGGAUCACCCAUGUGGAUGAUCGCUAGGAUAUGCGUGCGGGAGGAGUGGUGCAGAAGGAGUGGGAU [JR_SS1_Sub049] (puzzle: Same State 1) |  |  |  |  |  | apparent KD of MS2 coat protein (MS2 coat protein [3]; [6]): 188 nM

Sequence | apparent KD of MS2 coat protein (MS2 coat protein [1]) [nM] | apparent KD of MS2 coat protein (MS2 coat protein [2]) [nM] | apparent KD of MS2 coat protein (MS2 coat protein [3]; input ligand: FMN 200 uM) [nM] | apparent KD of MS2 coat protein (MS2 coat protein [3]; [4]) [nM] | apparent KD of MS2 coat protein (MS2 coat protein [3]; input ligand: none) [nM] | further results
GGAUCGGAGGCAGGAUAUGGGCUCAGAACAUGAGGAUCACCCAUGUAAAACGGCGCAAUGCGCCACCAGAAGGGCCUCCGACCG [Inmadibi] (Eterna round: R96, puzzle: Same State NG 2) |  |  | 8.62 | 17.8 | 44.7 | 
AUUUCUAGCAUAGGAUAUCAUGCGAAAAUUGCGUGAGAAGGGUGGACGCUGUCAUUCACGGAAGACAUGAGGAUCACCCAUGUC [SameState NG1 #75] (Eterna round: R96, puzzle: Same State NG 1) |  |  | 76.6 | 67.6 | 87.2 | 
GUGGUCAGACAUGAGGAUCACCCAUGUGGAAUAAAUAACACACAGGAUAUGUAAUAUAAAAUAUAACAGAAGGGUGGAUUGGUG (Eterna round: R96, puzzle: Same State NG 3) |  |  |  | 213 |  | 
AUUAUUUCAUGAGGAUAUGGCACCUUAUUGGUGCCAGAAGGCAUGUCUAUAAGACAUGAGGAUCACCCAUGUUUAAAUUAUAUA [Eli NG1ss - 90] (Eterna round: R96, puzzle: Same State NG 1) |  |  | 24.1 | 164 | 181 | 
AAUUUUAAACAUGAGGAUCACCCAUGUGUUAUAUAAGCAAAUAAAUAAAUAAAUAAAUAAAUAAAUAAAUAAAUAAA [RNA Sequence] (puzzle: Sensor for hsa-mir-208a version 2) |  |  |  |  |  | apparent KD of MS2 coat protein (MS2 coat protein [3]; [5]): 34.1 nM; apparent KD of MS2 coat protein (MS2 coat protein [3]; [6]): 40.2 nM; apparent KD of MS2 coat protein (MS2 coat protein [3]; [7]): 44.5 nM
UCUAGACAUGAGGAUCACCCAUGUCGAUAUGACACAGGAUAUCGGUACUCAUAGAGUACGCGAGAAGGGUGACUUC [Same State 1 - Mod of Vinnie Gere v.3] (puzzle: Same State 1) |  |  |  |  |  | apparent KD of MS2 coat protein (MS2 coat protein [3]; [5]): 112 nM; apparent KD of MS2 coat protein (MS2 coat protein [3]; [6]): 115 nM; apparent KD of MS2 coat protein (MS2 coat protein [3]; [7]): 166 nM
GUUACAUGAGGAUCACCCAUGUAUGUGUGGGAGUAAGUGUCUUAGGAUAUCUAUUAUGUAAAUUAAGAGAAGGAAGAUUGUUGU [JMF's solution 17] (Eterna round: R96, puzzle: Same State NG 3) |  |  | 160 | 222 | 262 | 
GCUCGACGUACGGCCUACAUGAGGAUCACCCAUGUGACUGGGCAGGAUAUCUAAAUGCAGAAUGUAGAGAAGGGCCCGUCGAGC [SameState NG3 #50] (Eterna round: R96, puzzle: Same State NG 3) |  |  | 323 | 35.9 | 384 | 
GACCAACAUGAGGAUCACCCAUGUUUCUGAGGCACAGGAUAUCGACAGGCAAGACACCUGCGAGAAGGGUGACCUC [Same State 1 - Mod of Vinnie Diatater v.3] (puzzle: Same State 1) |  |  |  |  |  | apparent KD of MS2 coat protein (MS2 coat protein [3]; [5]): 49.2 nM; apparent KD of MS2 coat protein (MS2 coat protein [3]; [6]): 38.8 nM; apparent KD of MS2 coat protein (MS2 coat protein [3]; [7]): 30.2 nM
AGUCCAGCCUGAGCUGGACAAAAGCAUGUACAUGAGGAUCACCCAUGUUCAUGUACAAGCUUUUUGCUCGUCUUUAA [salish99_208a_r3_096x] (Eterna round: R96, puzzle: Sensor for hsa-mir-208a) |  |  | 559 | 14.5 | 577 | 
GUACAGAUCACAGGAUAUCACGUCGAUUAGACGUGAGAAGGGUGAUCACACAUGAAUAUUAAUACAUGAGGAUCACCCAUGUAC [SSNG1/16-A2] (Eterna round: R96, puzzle: Same State NG 1) |  |  | 65.6 | 22.5 | 30.6 | 
GUAAAACAUGAGGAUCACCCAUGUCAACAAAGUCGAGGAUAUGGGCAAAUAAAAUAAGAACCAGAAGGCGAAUAAC [salish99_SS1_r3_010] (puzzle: Same State 1) |  |  |  |  |  | apparent KD of MS2 coat protein (MS2 coat protein [3]; [5]): 45.8 nM; apparent KD of MS2 coat protein (MS2 coat protein [3]; [6]): 377 nM; apparent KD of MS2 coat protein (MS2 coat protein [3]; [7]): 371 nM
UUUAUAUUCAGAGGAUAUUGAUGUUGUAUUUUACAAGAAGGCUGAUUGUUUUGUAAUGUUAUUAUACAUGAGGAUCACCCAUGU [JR_SSNG1_Sub014] (Eterna round: R96, puzzle: Same State NG 1) |  |  |  | 17.3 |  | 
UGGCUCAGACGAGGAUAUAUGUCUCGAGCUUCGGCUCGAGACAUGAGGAUCACCCAUGUAAUAACAUAGAAGGCGUCUGAGCCA [SSNG2/1-A2] (Eterna round: R96, puzzle: Same State NG 2) |  |  | 22.1 | 25.2 | 37.2 | 
ACAAGCUUUUCUGUAGUGAAAGGUGGGAUACAUGAGGAUCACCCAUGUAUUGUUGUCAAUAUUUGUCCUCGUCUUAU [JR_SHM208A_Sub086] (puzzle: Sensor for hsa-mir-208a) |  |  |  |  |  | apparent KD of MS2 coat protein (MS2 coat protein [3]; [5]): 31.4 nM; apparent KD of MS2 coat protein (MS2 coat protein [3]; [6]): 11 nM; apparent KD of MS2 coat protein (MS2 coat protein [3]; [7]): 31.1 nM
ACUAUUUAUGCAGGAUAUGAUUAACAUGAGGAUCACCCAUGUGGUGUUGUGAGUAAGGAGAGUGAUCAGAAGGGCAUUUUUUUU [JMF's solution 75] (Eterna round: R96, puzzle: Same State NG 2) |  |  | 518 | 297 | 359 | 
